# From patent US10260060B2, “Genetically modified phenylpyruvate decarboxylase, processes to prepare, and uses thereof” (Dow Global Technologies LLC, priority 2014, dated 2019)
# Where a chain is given by its changes, count along the chain named. Names and notes keep the numbering of the source.
# B1: Azospirillum brasilense phenylpyruvate decarboxylase (AbPPDC) variant F385L, SEQ ID 8 (Azospirillum brasilense; F385L) (protein)
# chain: MKLAEALLRALKDRGAQAMFGIPGDFALPFFKVAEETQILPLHTLSHEPAVGFAADAAARYSSTLGVAAVTYGAGAFNMVNAVAGAYAEKSPVVVISGAPGTTEGNAGLLLHHQGRTLDTQFQVFKEITVAQARLDDPAKAPAEIARVLGAARALSRPVYLEIPRNMVNAEVEPVGDDPAWPVDRDALAACADEVLAAMRSATSPVLMVCVEVRRYGLEAKVAELAQRLGVPVVTTFMGRGLLADAPTPPLGTYIGVAGDAEITRLVEESDGLFLLGAILSDTNFAVSQRKIDLRKTIHAFDRAVTLGYHTYADIPLAGLVDALLEGLPPSDRTTRGKEPHAYPTGLQADGEPIAPMDIARAVNDRVRAGQEPLLIAADMGDCLLTAMDMIDAGLMAPGYYAGMGFGVPAGIGAQCVSGGKRILTVVGDGAFQMTGWELGNCRRLGIDPIVILFNNASWEMLRTFQPESAFNDLDDWRFADMAAGMGGDGVRVRTRAELKAALDKAFATRGRFQLIEAMIPRGVLSDTLARFVQGQKRLHAAPRE
# notes: made in house; host or cells: E. coli BL21(DE3)
# B2: Azospirillum brasilense phenylpyruvate decarboxylase (AbPPDC), wild type, SEQ ID 4 (GenBank L26240), 13-amino acid N-terminal histidine tag (Azospirillum … (protein)
# chain: B1 chain with L385F
# notes: as for B1
# B3: Azospirillum brasilense phenylpyruvate decarboxylase (AbPPDC) variant Q536A, SEQ ID 34 (Azospirillum brasilense; Q536A) (protein)
# chain: B1 chain with L385F, Q536A
# notes: as for B1
# B4: Azospirillum brasilense phenylpyruvate decarboxylase (AbPPDC) variant M461L, SEQ ID 18 (Azospirillum brasilense; M461L) (protein)
# chain: B1 chain with L385F, M461L
# notes: as for B1
# B5: Azospirillum brasilense phenylpyruvate decarboxylase (AbPPDC) variant Q536L, SEQ ID 36 (Azospirillum brasilense; Q536L) (protein)
# chain: B1 chain with L385F, Q536L
# notes: as for B1
# Columns and labels:
# Assay type in all cases: biochemical, Azospirillum brasilense
# [1] = substrate: CCCCCCCC(=O)C(=O)O; assay: HTP AbPPDC coupled enzyme assay (ADH6/NADPH), 2-ketoacid decarboxylation kinetics, F385L; details: other: pH 6.8, 30° C, 2-ketoacid 0 to 4 mM, Hill equation, mean ± standard error
# Method: (§1) The evaluation of the AbPPDC variants is performed in two steps using the high-throughput enzyme assay described hereinbelow. Initially, all the variants are tested for activity against a single high concentration (2 mM) of 2-KH and 2-KN (as shown in Table 1). Following the initial evaluation, detailed kinetic analysis is performed on a select number of variants to determine the maximal rate (kcat), substrate concentration yielding half maximal rate (K0.5, equivalent of KM for enzymes following Michaelis-Menten kinetics), and the catalytic efficiency of the enzyme (kcat/K0.5) against 2-KO and 2-KN (as shown in Table 2). AbPPDC variants, having higher specificity (higher kcat/K0.5) for 2-KN, will be efficient in producing octanal and chemicals derived from it inside the cells.
# (§2) To evaluate the substrate specificity of the wild type AbPPDC and its variants listed in Table 1, genes of all the proteins are expressed in E. coli cells separately and the protein products are isolated from the cells. The gene sequence of the Azospirillum brasilense phenylpyruvate decarboxylase (GenBank: Accession no. L26240) is downloaded from the NCBI database. Codons of 13 additional amino acids that include six (6) histidines (his) are added upstream of the Met-1 codon of the AbPPDC gene sequence. Such a modification allows expression of a Histidine-tagged AbPPDC having 13 additional amino acids on the N-terminus. The additional amino acids are attached as an aid for purifying the protein in a single step using Ni-NTA chromatography. The entire AbPPDC sequence with 13 additional amino acids (SEQ ID 2) is chemically synthesized and then cloned into the pRSFDuet-1 vector (EMD Biosciences) downstream of the T7 polymerase promoter by Synthetic Genomics, Inc. (San Diego, Calif.). The final vector is sequenced by Synthetic Genomics, Inc. before shipping.
# (§3) Genes of the AbPPDC variants listed in Table 1 are either chemically synthesized or generated using New England Biolab's Q5 Site-directed Mutagenesis Kit (cat. no. E0554S) and cloned into the pRSFDuet-1 vector. The pRSFDuet-1 vector containing AbPPDC or the AbPPDC variant gene is transformed into E. coli, AbPPDC or its variant, then expressed and eventually purified, as described below.
# (§4) A high-throughput AbPPDC coupled enzyme assay is developed for evaluating the substrate specificity of AbPPDC variants. The assay involves reducing the aldehyde produced from AbPPDC mediated 2-ketoacid decarboxylation, using an alcohol dehydrogenase (ADH6, GenBank: Accession No. NP 014051.3). The initial velocities of the AbPPDC catalyzed reactions are determined from the rates of oxidation of reduced nicotinamide adenine dinucleotide phosphate (NADPH) occurring during the ADH6 catalyzed reduction of aldehyde.
# (§5) The HTP screening assay involves incubating 2 mM 2-KH or 2 mM 2-KN with 0.5 mM thiamine diphosphate, 0.35 mM NADPH, 4.7 micrograms (μg) of yeast ADH6 (GenBank: Accession No. NP 014051.3) and 0.3 milligrams per milliliter (mg/mL) bovine serum albumin (BSA) in AbPPDC assay buffer (50 mM 3-(N-morpholino)propanesulfonic acid, pH 6.8, containing 2.5 mM magnesium chloride (MgCl2)) at 30° C. The reaction is started by addition at 30° C. of working enzyme stock containing from 0.5 μg to 3.5 μg of AbPPDC variant diluted in AbPPDC assay buffer containing 1 mg/mL BSA. The plate containing the 200 μL of reaction mixture is centrifuged at 2500×g for 15 sec and the absorbance change of the reaction mixture followed spectrophotometrically at 340 nm on a BioTek™ plate reader, pre-equilibrated at 30° C. Initial velocity of the enzyme reaction is calculated using the rate of NADPH consumption at 340 nm and the extinction coefficient of NADPH (6.22 mM^−1 cm^−1). The activity of all the variants is normalized with the amount of enzyme present in the reaction mixture and expressed as nanomoles per minute per milligram (nmol·min^−1·mg^−1). […]
# [2] = substrate: CCCCCCC(=O)C(=O)O; assay: as above; details: other: pH 6.8, 30° C, 2-ketoacid 0 to 4 mM, Hill equation, mean ± standard error
# Method: as §1, §2, §3, §4, §5
# [3] = substrate: CCCCCCCC(=O)C(=O)O; assay: HTP AbPPDC coupled enzyme assay (ADH6/NADPH), 2-ketoacid decarboxylation kinetics, wild type; details: other: pH 6.8, 30° C, 2-ketoacid 0 to 4 mM, Hill equation, mean ± standard error
# Method: as §1, §2, §4
# (§6) The HTP screening assay involves incubating 2 mM 2-KH or 2 mM 2-KN with 0.5 mM thiamine diphosphate, 0.35 mM NADPH, 4.7 micrograms (μg) of yeast ADH6 (GenBank: Accession No. NP 014051.3) and 0.3 milligrams per milliliter (mg/mL) bovine serum albumin (BSA) in AbPPDC assay buffer (50 mM 3-(N-morpholino)propanesulfonic acid, pH 6.8, containing 2.5 mM magnesium chloride (MgCl2)) at 30° C. The reaction is started by addition at 30° C. of working enzyme stock containing from 0.5 μg to 3.5 μg of AbPPDC variant diluted in AbPPDC assay buffer containing 1 mg/mL BSA. The plate containing the 200 μL of reaction mixture is centrifuged at 2500×g for 15 sec and the absorbance change of the reaction mixture followed spectrophotometrically at 340 nm on a BioTek™ plate reader, pre-equilibrated at 30° C. Initial velocity of the enzyme reaction is calculated using the rate of NADPH consumption at 340 nm and the extinction coefficient of NADPH (6.22 mM^−1 cm^−1). The activity of all the variants is normalized with the amount of enzyme present in the reaction mixture and expressed as nanomoles per minute per milligram (nmol·min^−1·mg^−1). Protein concentrations for normalizing the activities are determined using the 660 nm total protein assay kit from Pierce Biotechnology Inc., available from Thermo Fisher Scientific, Inc., using BSA as the standard.
# (§7) The kinetic parameters of the decarboxylation of 2-ketooctanoate (2-KO) and 2-ketononanoate (2-KN) by AbPPDC and its variants are also determined using the same HTP AbPPDC coupled enzyme assay, except that the concentrations of 2-KO or 2-KN are varied from 0 to 4 mM. […]
# [4] = substrate: CCCCCCC(=O)C(=O)O; assay: as above; details: other: pH 6.8, 30° C, 2-ketoacid 0 to 4 mM, Hill equation, mean ± standard error
# Method: as §1, §2, §4, §6, §7
# [5] = substrate: CCCCCCCC(=O)C(=O)O; assay: HTP AbPPDC coupled enzyme assay (ADH6/NADPH), 2-ketoacid decarboxylation kinetics, Q536A; details: other: pH 6.8, 30° C, 2-ketoacid 0 to 4 mM, Hill equation, mean ± standard error
# Method: as §1, §2, §3, §4, §5
# [6] = substrate: CCCCCCC(=O)C(=O)O; assay: as above; details: other: pH 6.8, 30° C, 2-ketoacid 0 to 4 mM, Hill equation, mean ± standard error
# Method: as §1, §2, §3, §4, §5
# [7] = substrate: CCCCCCCC(=O)C(=O)O; assay: HTP AbPPDC coupled enzyme assay (ADH6/NADPH), 2-ketoacid decarboxylation kinetics, M461L; details: other: pH 6.8, 30° C, 2-ketoacid 0 to 4 mM, Hill equation, mean ± standard error
# Method: as §1, §2, §3, §4, §5
# [8] = substrate: CCCCCCC(=O)C(=O)O; assay: as above; details: other: pH 6.8, 30° C, 2-ketoacid 0 to 4 mM, Hill equation, mean ± standard error
# Method: as §1, §2, §3, §4, §5
# [9] = substrate: CCCCCCCC(=O)C(=O)O; assay: HTP AbPPDC coupled enzyme assay (ADH6/NADPH), 2-ketoacid decarboxylation kinetics, Q536L; details: other: pH 6.8, 30° C, 2-ketoacid 0 to 4 mM, Michaelis-Menten equation, mean ± standard error
# Method: as §1, §2, §3, §4, §5
# [10] = substrate: CCCCCCC(=O)C(=O)O; assay: as above; details: other: pH 6.8, 30° C, 2-ketoacid 0 to 4 mM, Michaelis-Menten equation, mean ± standard error
# Method: as §1, §2, §3, §4, §5
protein,measurement,setting,value
B1,K0.5,[1],2.39 ± 0.26 mM
same,kcat,[1],17 ± 1 min⁻¹
same,kcat/Km,[1],7.0 ± 1.0 mM⁻¹ min⁻¹
same,K0.5,[2],2.3 ± 0.5 mM
same,kcat,[2],1.7 ± 0.3 min⁻¹
same,kcat/Km,[2],0.8 ± 0.2 mM⁻¹ min⁻¹
B2,K0.5,[3],1.23 ± 0.02 mM
same,kcat,[3],20 ± 0 min⁻¹
same,kcat/Km,[3],16.2 ± 0.4 mM⁻¹ min⁻¹
same,K0.5,[4],1.7 ± 0.1 mM
same,kcat,[4],15 ± 0.7 min⁻¹
same,kcat/Km,[4],9.0 ± 0.7 mM⁻¹ min⁻¹
B3,K0.5,[5],0.52 ± 0.03 mM
same,kcat,[5],30 ± 1 min⁻¹
same,kcat/Km,[5],58 ± 4 mM⁻¹ min⁻¹
same,K0.5,[6],0.72 ± 0.02 mM
same,kcat,[6],20 ± 0.2 min⁻¹
same,kcat/Km,[6],27 ± 1 mM⁻¹ min⁻¹
B4,K0.5,[7],0.97 ± 0.04 mM
same,kcat,[7],28 ± 1 min⁻¹
same,kcat/Km,[7],29 ± 1.4 mM⁻¹ min⁻¹
same,K0.5,[8],1.4 ± 0.1 mM
same,kcat,[8],12 ± 0.5 min⁻¹
same,kcat/Km,[8],8.9 ± 0.7 mM⁻¹ min⁻¹
B5,K0.5,[9],1.51 ± 0.26 mM
same,kcat,[9],83 ± 6 min⁻¹
same,kcat/Km,[9],56 ± 11 mM⁻¹ min⁻¹
same,K0.5,[10],1.34 ± 0.23 mM
same,kcat,[10],27 ± 1.7 min⁻¹
same,kcat/Km,[10],21 ± 4 mM⁻¹ min⁻¹
